Measured values from the Human Domainome abundance scans (Beltran et al. 2025).

B1: POU domain, class 3, transcription factor 1, residues 247 to 324; numbered along this chain, Q03052 (parent)
chain: EDAPSSDDLEQFAKQFKQRRIKLGFTQADVGLALGTLYGNVFSQTTICRFEALQLSFKNMCKLKPLLNKWLEETDSSS

Variants of: B1
Test: abundance fitness (aPCA) (normalised: wild type 0, dead -1); higher = more abundant; growth selection in yeast, the domain comes from the species named
Details: Homo sapiens

Abundance fitness: each site, then its substitutions
L34: P -0.772; W -0.914; D -0.415; V -0.464; G -0.866; M -0.158; R -0.844; T -0.311; S -0.859; C -0.397; A -0.42; I -0.536; K -0.698; F -0.408
N40: F -0.167; I -0.117; S 0.004; H -0.179; T 0.031; P -0.276; W -0.244; K 0.263; M -0.126; L -0.237; E 0.031; Y -0.282; R 0.07; Q 0.103; G 0.008; V -0.131; D 0.062; A -0.179
G35: Y -0.313; V -0.641; P -1.13; S 0.064; M -0.4; Q -0.125; W -0.439; T 0.236; A -0.097; K -0.125; R 0.005; F -0.211; C -0.299; H -0.37; D -0.571
F42: H -0.226; N -0.597; D -0.295; L -0.043; Q 0.001; I 0.231; M 0.014; K -0.656; P -0.265; E -0.114; G -0.594
L32: N -0.371; W -0.185; K 0.086; I 0.163; V -0.183; Q 0.148; M -0.039; P -0.898; Y -0.148; R 0.122; S 0.152
V41: N 0.116; A -0.018; Q 0.093; Y -0.079; M 0.03; R -0.035; E 0.058; D -0.141; H 0.253; G 0.016; C -0.142; L -0.127; I 0.025; F -0.427; P 0.087; K 0.141; S 0.05
A33: D -0.504; F -0.105; T -0.405; V -0.255; Y -0.221; Q 0.096; K -0.067; W -0.195; E 0.047; P -0.645; H -0.332; L 0.003; C -0.474; I -0.317; N -0.075
L37: M 0.097; I 0.11; S -0.261; G -0.275; C 0.206; F -0.06; Q -0.054; Y 0.175; W -0.251; E -0.062; D -0.35; V -0.198; H 0.133; N -0.333; K 0.137
G39: H 0.144; P -0.124; T -0.196; V -0.846; C -0.523; N -0.213; W -0.421; M -1.04; D -0.192; E -0.344; I -0.488; L -0.751; S -0.258; A -0.365; R -0.198
Y38: M -0.486; N 0.019; W -0.43; Q -0.173; I 0.108; H -0.014; V -0.031; D -0.058; A -0.153; E -0.332; K -0.153; S -0.026; L -0.418; R -0.383; F -0.13; P -0.44; C -0.029
T36: I -0.178; L -0.154; V -0.36; H -0.299; M 0.02; P -0.262; D 0.112; Y -0.416; W -0.532; G -0.166; S 0.134; Q 0.032; N -0.025; C -0.18; R 0.089; A -0.162; K 0.111; E 0.158; F -0.659
